Results published in patent publication US20150218277A1.
Ends that are not written are not given here.

What was measured:
[1] = target: HSP90 endogenous to CHO cells (Hamster), P46633; assay: cell-based or functional assay
[2] = target: T1, Heat Shock Protein 90 (HSP90), endogenous, in human cell lines (human), P07900; assay: cell-based or functional assay
[3] = target: T1, Heat Shock Protein 90 (HSP90), …; assay: streptavidin affinity purification of biotinylated peptide from lysates of cancer cells (UMSCC1, H1975), immunoblot for HSP90

HSP90 endogenous to CHO cells (Hamster), P46633, sequence (P46633 whole entry): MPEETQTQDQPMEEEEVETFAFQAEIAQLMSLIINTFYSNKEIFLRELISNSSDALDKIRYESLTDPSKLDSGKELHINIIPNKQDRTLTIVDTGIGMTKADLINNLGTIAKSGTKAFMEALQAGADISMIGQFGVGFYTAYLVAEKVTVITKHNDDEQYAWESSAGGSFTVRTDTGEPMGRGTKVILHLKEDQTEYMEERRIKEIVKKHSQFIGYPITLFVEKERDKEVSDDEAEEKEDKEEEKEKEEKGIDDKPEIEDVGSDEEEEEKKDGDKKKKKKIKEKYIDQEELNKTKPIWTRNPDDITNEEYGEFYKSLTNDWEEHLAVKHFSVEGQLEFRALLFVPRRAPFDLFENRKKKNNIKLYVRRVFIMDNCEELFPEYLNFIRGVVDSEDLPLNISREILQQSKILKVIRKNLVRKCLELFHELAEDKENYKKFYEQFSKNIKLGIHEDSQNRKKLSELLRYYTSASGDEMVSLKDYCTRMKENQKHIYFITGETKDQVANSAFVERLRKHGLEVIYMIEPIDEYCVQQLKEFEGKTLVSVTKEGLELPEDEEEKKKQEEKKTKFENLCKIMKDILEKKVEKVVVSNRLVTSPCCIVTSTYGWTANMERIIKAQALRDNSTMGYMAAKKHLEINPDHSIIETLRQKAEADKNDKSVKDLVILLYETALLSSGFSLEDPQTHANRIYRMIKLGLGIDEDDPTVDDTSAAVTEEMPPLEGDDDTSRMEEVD

Binder	clonogenic survival, CHO cells (EGFR negative) (surviving fraction) [1]	clonogenic survival, A549 cells (WT-EGFR) (surviving fraction) [2]	clonogenic survival, H1975 cells (T790M-EGFR) (surviving fraction) [2]	clonogenic survival, H3255 cells (L858R-EGFR) (surviving fraction) [2]	clonogenic survival, HeLa cells (WT-EGFR) (surviving fraction) [2]	clonogenic survival, Het1A normal epithelial cells (WT-EGFR) (surviving fraction) [2]	clonogenic survival, MRC5 normal fibroblasts (WT-EGFR) (surviving fraction) [2]	clonogenic survival, UMSCC1 cells (WT-EGFR) (surviving fraction) [2]	clonogenic survival, UMSCC10B cells (WT-EGFR) (surviving fraction) [2]	clonogenic survival, UMSCC74B cells (WT-EGFR) (surviving fraction) [2]	fold increase in HSP90 protein binding [3] [fold]
YGRKKRRQRRRNHVPSDVC (not fully specified (N-terminus)) [Non Specific Peptide Biotin-[…]-NHVPSDVC]	1.12	0.81	0.77	1	0.92	0.91	1.04	1.02	0.96	0.89	–
YGRKKRRQRRRSVDNPHVC (not fully specified (N-terminus)) [Specific Peptide Biotin-[…]-SVDNPHVC]	0.98	0.57	0.4	0.71	0.72	1.02	1.01	0.76	0.63	0.74	5 to 10
